Assays:
[1] = target: T1, His-Avi-Trx-Frmpd1-pept (Frmpd1 residues 895–938) (UniProt A2AKB4 895-938, not fully specified; biotin (biotinylated in E. coli by native BirA ligase)); assay: BLI
T1 chain: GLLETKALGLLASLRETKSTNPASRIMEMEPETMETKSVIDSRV

[2] = target: T1, His-Avi-Trx-Frmpd1-pept (Frmpd1 …); assay: BLI; in the presence of Gαt*

B1: HMT-Gpsm2 (His6-MBP-TEV site-Gpsm2) (natural protein)
chain: MEENLISMREDHSFHVRYRMEASCLELALEGERLCKSGDCRAGVSFFEAAVQVGTEDLKTLSAIYSQLGNAYFYLHDYAKALEYHHHDLTLARTIGDQLGEAKASGNLGNTLKVLGNFDEAIVCCQRHLDISRELNDKVGEARALYNLGNVYHAKGKSFGCPGPQDVGEFPEEVRDALQAAVDFYEENLSLVTALGDRAAQGRAFGNLGNTHYLLGNFRDAVIAHEQRLLIAKEFGDKAAERRAYSNLGNAYIFLGEFETASEYYKKTLLLARQLKDRAVEAQSCYSLGNTYTLLQDYEKAIDYHLKHLAIAQELNDRIGEGRACWSLGNAYTALGNHDQAMHFAEKHLEISREVGDKSGELTARLNLSDLQMVLGLSYSTNNSIMSENTEIDSSLNGVRPKLGRRHSMENMELMKLTPEKVQNWNSEILAKQKPLIAKPSAKLLFVNRLKGKKYKTNSSTKVLQDASNSIDHRIPNSQRKISADTIGDEGFFDLLSRFQSNRMDDQRCCLQEKNCHTASTTTSSTPPKMMLKTSSVPVVSPNTDEFLDLLASSQSRRLDDQRASFSNLPGLRLTQNSQSVLSHLMTNDNKEADEDFFDILVKCQGSRLDDQRCAPPPATTKGPTVPDEDFFSLILRSQGKRMDEQRVLLQRDQNRDTDFGLKDFLQNNALLEFKNSGKKSADH
[1]
  Kd: 286 nM
[2]
  Kd: 198 nM

— paper PMC9581579 (2022)
